Biological target: the molecule itself
Assay: SEC + native gel or EMSA

B1: C-terminally truncated Mycobacterium tuberculosis MmpL3 (ΔC Mtb-MmpL3, aa 1–753) (domain or fragment)
chain: MFAWWGRTVYRYRFIVIGVMVALCLGGGVFGLSLGKHVTQSGFYDDGSQSVQASVLGDQVYGRDRSGHIVAIFQAPAGKTVDDPAWSKKVVDELNRFQQDHPDQVLGWAGYLRASQATGMATADKKYTFVSIPLKGDDDDTILNNYKAIAPDLQRLDGGTVKLAGLQPVAEALTGTIATDQRRMEVLALPLVAVVLFFVFGGVIAAGLPVMVGGLCIAGALGIMRFLAIFGPVHYFAQPVVSLIGLGIAIDYGLFIVSRFREEIAEGYDTETAVRRTVITAGRTVTFSAVLIVASAIGLLLFPQGFLKSLTYATIASVMLSAILSITVLPACLGILGKHVDALGVRTLFRVPFLANWKISAAYLNWLADRLQRTKTREEVEAGFWGKLVNRVMKRPVLFAAPIVIIMILLIIPVGKLSLGGISEKYLPPTNSVRQAQEEFDKLFPGYRTNPLTLVIQTSNHQPVTDAQIADIRSKAMAIGGFIEPDNDPANMWQERAYAVGASKDPSVRVLQNGLINPADASKKLTELRAITPPKGITVLVGGTPALELDSIHGLFAKMPLMVVILLTTTIVLMFLAFGSVVLPIKATLMSALTLGSTMGILTWIFVDGHFSKWLNFTPTPLTAPVIGLIIALVFGLSTDYEVFLVSRMVEARERGMSTQEAIRIGTAATGRIITAAALIVAVVAGAFVFSDLVMMKYLAFGLMAALLLDATVVRMFLVPSVMKLLGDDCWWAPRWARRLQTRIGLGEIHLPD
notes: also called Mtb-MmpL3 ΔC; Mtb MmpL3 ΔC
binding result: binds

From publication PMC11352979, “The mycobacterium lipid transporter MmpL3 is dimeric in detergent solution, SMALPs and reconstituted nanodiscs†” (RSC Chemical Biology, 2024)
